Molecular target: the molecule itself
Assay: cryo-EM structure; cryo electron tomography and subtomogram averaging of NaChBac in proteoliposomes (E. coli polar lipid extract, lipid-to-protein 2:1 wt/wt); polarized membrane, [K+]in 150 mM, [K+]out 3 mM, 1 uM valinomycin, -100 mV; 25 mM HEPES pH 7.0; 3116 particles, C1, 16.3 A

B1: His6-GFP^A206K-NaChBac (natural protein, Bacillus halodurans, UniProt Q9KCR8 1-274, looked up)
chain: MKMEARQKQNSFTSKMQKIVNHRAFTFTVIALILFNALIVGIETYPRIYADHKWLFYRIDLVLLWIFTIEIAMRFLASNPKSAFFRSSWNWFDFLIVAAGHIFAGAQFVTVLRILRVLRVLRAISVVPSLRRLVDALVMTIPALGNILILMSIFFYIFAVIGTMLFQHVSPEYFGNLQLSLLTLFQVVTLESWASGVMRPIFAEVPWSWLYFVSFVLIGTFIIFNLFIGVIVNNVEKAELTDNEEDGEADGLKQEISALRKDVAELKSLLKQSK
notes: NaChBac, prokaryotic voltage-gated sodium channel from Bacillus halodurans; cDNA for full-length NaChBac in pET21a; the tagged subunit is 55 kDa; the channel without tags is about 120 kDa as a tetramer; also called his-GFP-NaChBac; his-tagged GFP^A206K-NaChBac; source: E. coli C41(DE3), purified (Ni-NTA, SEC in DDM), reconstituted into liposomes of E. coli polar lipid extract; not shown: His6, …
- stoichiometry N: 4
